The source of these data is US20210032365A1 (Chugai, published 2021).

Substitutions are numbered along the chain they refer to. Names may count otherwise.

First the molecules themselves.
B1: IPN009VH2/IPN009VK3-SG136 (antibody, human IgG1, kappa)
heavy: EVMLVESGGGLVKPGGSLRLSCAASGFTFSNYAMSWVRQAPGKGLEWVATISSGGSHTYYLDSVKGRFTISRDNSKDTLYLQMNSLRAEDTALYYCARLFTGYAMDYWGQGTLVTVSSASTKGPSVFPLAPSSKSTSGGTAALGCLVKDYFPEPVTVSWNSGALTSGVHTFPAVLQSSGLYSLSSVVTVPSSSLGTQTYICNVNHKPSNTKVDKKVEPKSCDKTHTCPPCPAPELRRGPSVFLFPPKPKDTLMISRTPEVTCVVVDVSHEDPEVKFNWYVDGVEVHNAKTKPREEQYNSTYRVVSVLTVLHQDWLNGKEYKCKVSNKGLPSSIEKTISKAKGQPREPQVYTLPPSREEMTKNQVSLTCLVKGFYPSDIAVEWESNGQPENNYKTTPPVLDSDGSFFLYSKLTVDKSRWQQGNVFSCSVMHEALHNHYTQKSLSLSP
light: QIVLTQSPATLSLSPGERATLSCTASSSVSSSYLHWYQQKPGKAPKLWIYSTSNLASGVPSRFSGSGSGTDYTLTISSLQPEDFATYYCHQYYRLPPITFGQGTKLEIKRTVAAPSVFIFPPSDEQLKSGTASVVCLLNNFYPREAKVQWKVDNALQSGNSQESVTEQDSKDCTYSLSSTLTLSKADYEKHKVYACEVTHQGLSSPVTKSFNRGEC
notes: also called IPN009VH2/IPN009VK3 (lot PPU2040)
B2: IPN92H0033/IPN93L0024-SG136 (antibody, human IgG1, kappa)
heavy: B1 heavy with Y103H
light: B1 light with P96H
notes: also called IPN92H0033/IPN93L0024 (lot PPU2046)
B3: IPN92H0288/IPN93L0058-SG136 (antibody, human IgG1, kappa)
heavy: B1 heavy with Y60E, K65D, G102K, Y103H
light: B1 light with S28E, P96H
notes: also called IPN92H0288/IPN93L0058 (lot PPU2050)
B4: IPN009VH2/IPN93L0021-SG136 (antibody, human IgG1, kappa, name in Kabat numbering)
heavy: B1 heavy
light: B1 light with Y93H
notes: also called IPN009VH2/IPN93L0021 (lot PPU2042)
B5: IPN92H0033/IPN009VK3-SG136 (antibody, human IgG1, kappa)
heavy: B1 heavy with Y103H
light: B1 light
notes: also called IPN92H0033/IPN009VK3 (lot PPU2041)
B6: IPN009VH2/IPN93L0024-SG136 (antibody, human IgG1, kappa)
heavy: B1 heavy
light: B1 light with P96H
notes: also called IPN009VH2/IPN93L0024 (lot PPU2044)
B7: IPN009VH2/IPN93L0023-SG136 (antibody, human IgG1, kappa, name in Kabat numbering)
heavy: B1 heavy
light: B1 light with L95H
notes: also called IPN00VH2/IPN93L0023-SG136
B8: IPN92H0038/IPN93L0024-SG136 (antibody, human IgG1, kappa, name in Kabat numbering)
heavy: B1 heavy with G66H, Y103H
light: B1 light with P96H
notes: Substitutions are numbered by Kabat
B9: IPN92H0033/IPN93L0024-SG136 (antibody, human IgG1, kappa)
heavy: B1 heavy with Y103H
light: B1 light with P96H
B10: IPN92H0288/IPN93L0058-SG136 (antibody, human IgG1, kappa)
heavy: B1 heavy with Y60E, K65D, G102K, Y103H
light: B1 light with S28E, P96H
B11: IPN92H0288/IPN93L0211-SG136 (antibody, human IgG1, kappa)
heavy: B1 heavy with Y60E, K65D, G102K, Y103H
light: B1 light with S28E, S31E, P96H
B12: IPN92H0281/IPN93L0024-SG136 (antibody, human IgG1, kappa, name in Kabat numbering)
heavy: B1 heavy with H57K, Y60E, K65D, G66E, G102K, Y103H
light: B1 light with P96H
notes: as for B8
B13: IPN92H0307/IPN93L0058-SG136 (antibody, human IgG1, kappa)
heavy: B1 heavy with T28E, S30E, Y60E, K65D, G102K, Y103H
light: B1 light with S28E, P96H
B14: IPN92H0033/IPN009VK3-SG136 (antibody, human IgG1, kappa)
heavy: B1 heavy with Y103H
light: B1 light
notes: VH is IPN009VH2 with Y99H (Kabat)
B15: IPN009VH2/IPN93L0024-SG136 (antibody, human IgG1, kappa)
heavy: B1 heavy
light: B1 light with P96H
notes: VL is IPN009VK3 with P95H (Kabat)

For the first experiment, the target named is T1, human C1s (human, UniProt P09871 16-688).
T1 construct: Analyte in the Biacore assays; also called hC1s; serum-derived human C1s (CompTech)
T1 sequence: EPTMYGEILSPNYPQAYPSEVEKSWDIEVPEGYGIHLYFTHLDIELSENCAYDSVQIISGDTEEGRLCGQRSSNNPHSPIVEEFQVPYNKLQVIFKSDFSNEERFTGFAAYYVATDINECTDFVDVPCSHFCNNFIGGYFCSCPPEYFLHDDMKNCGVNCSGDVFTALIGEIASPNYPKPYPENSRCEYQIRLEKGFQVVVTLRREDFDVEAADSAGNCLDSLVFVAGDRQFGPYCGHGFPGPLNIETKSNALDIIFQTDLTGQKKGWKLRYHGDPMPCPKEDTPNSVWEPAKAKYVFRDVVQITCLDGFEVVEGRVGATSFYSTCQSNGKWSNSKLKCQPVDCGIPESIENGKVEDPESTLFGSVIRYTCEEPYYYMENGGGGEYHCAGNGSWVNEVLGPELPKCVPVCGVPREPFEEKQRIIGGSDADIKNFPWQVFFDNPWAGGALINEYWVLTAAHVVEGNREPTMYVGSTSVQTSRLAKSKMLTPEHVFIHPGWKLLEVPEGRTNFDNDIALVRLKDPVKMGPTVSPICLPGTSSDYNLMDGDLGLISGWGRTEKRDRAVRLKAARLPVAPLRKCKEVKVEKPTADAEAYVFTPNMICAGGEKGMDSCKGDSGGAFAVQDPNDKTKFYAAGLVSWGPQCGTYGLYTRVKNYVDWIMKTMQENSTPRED
Kind of experiment: SPR; KD at pH 5.8 over KD at pH 7.4, both 1.2 mM Ca. The procedure: (§1) The binding affinity of all histidine-substituted variants at pH 7.4 and pH 5.8 were determined at 37 degrees C. using Biacore T200 instrument (GE Healthcare). Recombinant Protein A/G (Pierce) was immobilized onto all flow cells of a CM4 sensor chip using amine coupling kit (GE Healthcare). Antibodies and analytes were prepared in 7(+) buffer (20 mM ACES, 150 mM NaCl, 1.2 mM CaCl2, 0.05% Tween 20, 0.005% NaN3, pH 7.4) or 5(+) buffer (20 mM ACES, 150 mM NaCl, 1.2 mM CaCl2), 0.05% Tween 20, 0.005% NaN3, pH 5.8). Each antibody was captured onto the sensor surface by protein A/G. Antibody capture levels were aimed at 200 resonance unit (RU). […] Sensor surface was regenerated each cycle with 10 mM Glycine-HCl pH 1.5. […] An additional dissociation phase at pH 5.8 was integrated immediately after the dissociation phase at pH 7.4. This dissociation rate in 5(+) buffer was determined by processing and fitting data using Scrubber 2.0 (BioLogic Software) curve fitting software. […]
As for B1, the “KD (5.8+)/KD (7.4+)” value is 0.4.

Regarding B2, the “KD (5.8+)/KD (7.4+)” value was 4.7.

As to B3, the “KD (5.8+)/KD (7.4+)” value was determined as 65.6.

With B4, the “KD (5.8+)/KD (7.4+)” value worked out at 1.5.

As for B5, the “KD (5.8+)/KD (7.4+)” value was determined as 0.9.

Consider B6, for which the “KD (5.8+)/KD (7.4+)” value was 1.3.

The next experiment concerns the target T2, Serum-derived human C1s (human, UniProt P09871 16-688).
T2 construct: The analyte was C1s purified from serum; also called hC1s
T2 sequence: T1 sequence
Nature of the experiment: SPR Biacore T200, 37 C, ratio of KD pH 5.8 / pH 7.4, 1.2 mM CaCl2. How it is done:
as §1
As to B7, the “KD (5.8+)/KD (7.4+)” value amounted to 0.9.

Take B8: the “KD (5.8+)/KD (7.4+)” value worked out at 8.9.

On to B9, for which the “KD (5.8+)/KD (7.4+)” value was determined as 4.7.

Take B10: the “KD (5.8+)/KD (7.4+)” value was found to be 65.6.

B11: the “KD (5.8+)/KD (7.4+)” value was found to be 74.9.

Take B12: the “KD (5.8+)/KD (7.4+)” value is 60.9.

Take B13: the “KD (5.8+)/KD (7.4+)” value was 28.4.

Take B14: the “KD (5.8+)/KD (7.4+)” value amounted to 0.9.

Regarding B15, the “KD (5.8+)/KD (7.4+)” value was determined as 1.3.

The target of the next experiment is T2, Serum-derived human C1s. Nature of the experiment: SPR Biacore T200, 37 C, antibody captured on protein A/G, pH 5.8, 1.2 mM CaCl2. How it is done:
(§2) The binding affinity of all histidine-substituted variants at pH 7.4 and pH 5.8 were determined at 37 degrees C. using Biacore T200 instrument (GE Healthcare). Recombinant Protein A/G (Pierce) was immobilized onto all flow cells of a CM4 sensor chip using amine coupling kit (GE Healthcare). Antibodies and analytes were prepared in 7(+) buffer (20 mM ACES, 150 mM NaCl, 1.2 mM CaCl2, 0.05% Tween 20, 0.005% NaN3, pH 7.4) or 5(+) buffer (20 mM ACES, 150 mM NaCl, 1.2 mM CaCl2), 0.05% Tween 20, 0.005% NaN3, pH 5.8). Each antibody was captured onto the sensor surface by protein A/G. Antibody capture levels were aimed at 200 resonance unit (RU). […] Sensor surface was regenerated each cycle with 10 mM Glycine-HCl pH 1.5. […] An additional dissociation phase at pH 5.8 was integrated immediately after the dissociation phase at pH 7.4. This dissociation rate in 5(+) buffer was determined by processing and fitting data using Scrubber 2.0 (BioLogic Software) curve fitting software.
B7 came in with a Kd of 2.48 nM, a koff of 0.000818 s⁻¹ and a kon of 330000 M⁻¹ s⁻¹.

As for B8, the Kd turned out to be 10.7 nM, the koff was found to be 0.00309 s⁻¹ and the kon was found to be 289000 M⁻¹ s⁻¹.

Molecule B9 had a koff of 0.0031 s⁻¹ and a kon of 261000 M⁻¹ s⁻¹.

As to B10, the koff worked out at 0.0127 s⁻¹ and the kon turned out to be 315000 M⁻¹ s⁻¹.

As for B11, the koff was 0.0194 s⁻¹ and the kon worked out at 233000 M⁻¹ s⁻¹.

B12 came in with a Kd of 123 nM, a koff of 0.0267 s⁻¹ and a kon of 217000 M⁻¹ s⁻¹.

B13 gave a koff of 0.0121 s⁻¹ and a kon of 318000 M⁻¹ s⁻¹.

Turning to B14, the koff came to 0.000362 s⁻¹ and the on-rate (kon) turned out to be 389000 M⁻¹ s⁻¹.

Regarding B15, the koff was determined as 0.000956 s⁻¹ and the kon came to 221000 M⁻¹ s⁻¹.

The next experiment addresses T2, Serum-derived human C1s. Kind of experiment: SPR Biacore T200, 37 C, antibody captured on protein A/G, pH 7.4, 1.2 mM CaCl2. How it is done:
as §2
In the case of B7, the Kd worked out at 2.77 nM and the kon was determined as 227000 M⁻¹ s⁻¹.

Take B8: the Kd worked out at 1.2 nM and the kon was determined as 384000 M⁻¹ s⁻¹.

The molecule B9 returned a kon of 227000 M⁻¹ s⁻¹.

Molecule B10 displayed a kon of 666000 M⁻¹ s⁻¹.

With B11, the kon is 469000 M⁻¹ s⁻¹.

In the case of B12, the Kd worked out at 2.02 nM and the kon is 319000 M⁻¹ s⁻¹.

Molecule B13 displayed a kon of 391000 M⁻¹ s⁻¹.

The molecule B14 yielded a kon of 377000 M⁻¹ s⁻¹.

On to B15, for which the kon turned out to be 180000 M⁻¹ s⁻¹.

For another experiment, the target named is T2, Serum-derived human C1s. Nature of the experiment: SPR Biacore T200, 37 C, ratio of dissociation rates pH 5.8 / pH 7.4, 1.2 mM CaCl2. How it is done:
as §2
B7: the “koff (5.8+ of 775+)/koff (7.4+)” value is 1.1.

As for B8, the “koff (5.8+ of 775+)/koff (7.4+)” value is 7.7.

In the case of B9, the “koff (5.8+ of 775+)/koff (7.4+)” value was 5.1.

Take B10: the “koff (5.8+ of 775+)/koff (7.4+)” value worked out at 38.8.

Turning to B11, the “koff (5.8+ of 775+)/koff (7.4+)” value is 54.2.

Turning to B12, the “koff (5.8+ of 775+)/koff (7.4+)” value was 38.2.

For the molecule B13, the “koff (5.8+ of 775+)/koff (7.4+)” value is 28.8.

Regarding B14, the “koff (5.8+ of 775+)/koff (7.4+)” value came out at 0.7.

As for B15, the “koff (5.8+ of 775+)/koff (7.4+)” value worked out at 1.2.

A further experiment deals with T1, human C1s. Kind of experiment: SPR (Biacore T200, 37C), Ab captured on protein A/G, serum C1s 12.5 and 50 nM; pH 7.4, 1.2 mM Ca. The procedure: as §2
On to B1, for which the koff worked out at 0.000411 s⁻¹.

As for B2, the koff came out at 0.000571 s⁻¹.

In turn, B3 displayed a koff of 0.000408 s⁻¹.

In the case of B4, the koff is 0.00058 s⁻¹.

The molecule B5 gave a koff of 0.00038 s⁻¹.

Molecule B6 displayed a koff of 0.000612 s⁻¹.

The target in another experiment is T1, human C1s. Nature of the experiment: SPR; koff (5.8+ of 775+): extra dissociation phase at pH 5.8 (1.2 mM Ca) right after the pH 7.4 dissociation, Scrubber fit. How it is done: as §2
Molecule B1 displayed a koff of 8.86e-05 s⁻¹.

As for B2, the koff stood at 0.0029 s⁻¹.

B3 yielded a dissociation rate constant (koff) of 0.0158 s⁻¹.

The molecule B4 gave a koff of 0.0011 s⁻¹.

Consider B5, for which the koff is 0.000265 s⁻¹.

Take B6: the koff was 0.000741 s⁻¹.
